Columns and labels:
mCherry-R125I/T127V = experiment: fluorescence polarisation
mCherry-R125I = experiment: fluorescence polarisation

Substance | Kd (mCherry-R125I/T127V) [µM] | Kd (mCherry-R125I) [µM]
mCherry-R125I/T127V | 0.091 | –
mCherry-R125I | – | 35

— publication PMC3826083
